Substitutions are numbered along the chain they refer to. “And” between values parts separate entries of the source, which are not always exact repeats. Equal entries are not always repeated.
What was measured:
[1] = target: T1, Azami-Green fusion cynomolgus monkey CRTH2 (cynomolgus monkey, UniProt Q9Y5Y4 1-395 (human entry)); experiment: flow cytometry on Azami-Green fusion cynomolgus monkey CRTH2-expressing CHO/DG44 cells, 2-30000 ng/mL
T1 construct: Expressed on CHO/DG44 cells; not shown: Azami-Green tag from vector phmAG1-MNLinker (MBL)
T1 chain: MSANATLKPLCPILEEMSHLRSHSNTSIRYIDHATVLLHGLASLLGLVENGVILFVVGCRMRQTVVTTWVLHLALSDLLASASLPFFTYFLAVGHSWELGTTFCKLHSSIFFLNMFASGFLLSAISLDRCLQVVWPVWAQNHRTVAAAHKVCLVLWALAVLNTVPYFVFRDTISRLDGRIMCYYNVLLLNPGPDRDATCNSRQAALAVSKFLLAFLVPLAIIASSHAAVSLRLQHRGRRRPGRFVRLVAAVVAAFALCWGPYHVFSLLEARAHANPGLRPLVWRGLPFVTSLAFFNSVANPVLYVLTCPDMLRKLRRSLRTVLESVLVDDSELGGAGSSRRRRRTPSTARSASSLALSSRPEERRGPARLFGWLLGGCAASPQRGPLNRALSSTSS
Procedure: The Azami-Green fusion human CRTH2-expressing CHO/DG44 cells and the cynomolgus monkey CRTH2-expressing CHO/DG44 cells established in Example 24 were peeled using 0.02% EDTA solution (NACALAI TESQUE, Inc.), washed with PBS, and suspended with SM. Next, the cells were seeded in a 96-well plate such that each well had 2×10⁵ cells, and humanized Lym2 antibody LV0HV1 or the anti-DNP IgG1 antibody at each of final concentrations 30000, 7500, 1875, 469, 117, 29, 7, and 2 ng/mL were added thereto to cause a reaction at 4° C. for 40 minutes.
After the cells were washed three times with SM, goat anti-Human IgG alexa 647 (Molecular Probes) diluted to a concentration of 10 μg/mL with SM was added thereto at 100 μL/well to perform a reaction at 4° C. for 40 minutes. The cells were washed with SM and resuspended with 100 μL of SM, and the fluorescent intensity was measured by flow cytometry (BD Biosciences, FACS CantoII).

[2] = target: T2, FLAG fusion human CRTH2 (human, UniProt Q9Y5Y4 1-395); experiment: flow cytometry on FLAG fusion human CRTH2-expressing 3Y1-B cells; logistic fit of Geomean; ± is the standard error
T2 construct: Expressed on rat 3Y1-B cells; also called human CRTH2 with a C terminal to which a FLAG tag was added; not shown: FLAG tag at the C terminal
T2 sequence: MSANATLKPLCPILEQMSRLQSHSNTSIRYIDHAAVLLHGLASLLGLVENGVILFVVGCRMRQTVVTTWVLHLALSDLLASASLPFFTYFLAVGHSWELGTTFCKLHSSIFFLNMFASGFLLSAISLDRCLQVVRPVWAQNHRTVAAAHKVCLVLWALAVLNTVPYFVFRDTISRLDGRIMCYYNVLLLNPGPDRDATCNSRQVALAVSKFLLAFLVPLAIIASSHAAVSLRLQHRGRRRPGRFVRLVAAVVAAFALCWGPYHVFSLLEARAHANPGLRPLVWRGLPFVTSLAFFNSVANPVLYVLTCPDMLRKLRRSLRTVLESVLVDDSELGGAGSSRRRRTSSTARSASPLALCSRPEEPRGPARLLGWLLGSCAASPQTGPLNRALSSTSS
Procedure: FLAG fusion human CRTH2-expressing 3Y1-B cells were peeled using a 0.25% trypsin-EDTA (NACALAI TESQUE, Inc.), washed with PBS, and suspended with SM. Next, the cells were seeded in a 96-well plate such that one well has 1×10⁵ cells. Further, chLym2 or each of the humanized Lym2 antibodies was added at each final concentrations of 50000, 12500, 3125, 781, 195, 49, 12, and 3 ng/mL to cause a reaction at 4° C. for 60 minutes.
After the cells were washed with SM, Goat F(ab′)₂ Anti-Human IgG PE (γchain specific) (Southern Biotech Inc.) diluted 500 times with SM was added to cause a reaction at 4° C. for 60 minutes. The cells were washed with SM and resuspended with 50 μL of SM, and the fluorescent intensity was measured by flow cytometry (BD Biosciences, FACS CantoII).
The data was analyzed by FLowJo 7.65 (Tomy Digital Biology Co., Ltd.), curve fitting of the Geomean value in each concentration was performed using a Logistic curve, and the 50% effective concentration (EC₅₀) value of the binding of chLym2 and each humanized Lym2 antibody and the standard error (SE) value thereof were calculated using R language (Ver. 3.02) which is a language for statistical analysis.

B1: humanized Lym2 antibody LV0HV1 (antibody, V domains shown)
VH: EVQLVESGGGVVQPGRSLRLSCAASGFTFSNYYMAWVRQAPGKGLEWVATISYDGSSTYYRDSVKGRFTISRDNAKNSLYLQMNSLRAEDTATYYCARHRGYYYSGAGYFDYWGQGTMVTVSS
VL: DIVMTQTPLSLPVTPGESASISCRSSQSLEYSDGYTYLEWYLQKPGQSPQVLIYGVSNRFSGVPDRFSGSGSGTDFTLKISRVEAEDVGVYYCFQATHDPLTFGQGTKLEIK
notes: also called humanized anti-human CRTH2 antibody LV0HV1
- binding result [1]: binds
- EC50 [2]: 0.78 mg/L

B2: rat/human chimeric Lym2 antibody (antibody, V domains shown)
VH: B1 VH with V11L, L18M, R19K, G42K, N77S, S78T, N84D, A88S, T117V
VL: DVVLTQTPVSLSVTLGDQASISCRSSQSLEYSDGYTYLEWYLQKPGQSPQVLIYGVSNRFSGVPDRFIGSGSGTDFTLKISRVEPEDLGVYYCFQATHDPLTFGSGTKLEIK
notes: expressed in FUT8 knockout CHO cells; also called chLym2
- EC50 [2]: 0.5 mg/L and 0.54 mg/L

B3: humanized Lym2 antibody LV4HV4 (antibody, V domains shown)
VH: B1 VH with L18M, N77S, T117V
VL: B1 VL with I2V, M4L, P15L, A85P
- EC50 [2]: 0.68 mg/L

Source: patent US20180371100A1 (Kyowa Kirin, published 2018)
